Source: patent US8202695 (TUFTS UNIVERSITY, dated 2012)

Target: the molecule itself
Assay: X-ray crystals of CodY grown with GTP, with isoleucine and valine, or without effectors

B1: Bacillus subtilis CodY protein (other, UniProt P39779 2-259, looked up)
chain: ALLQKTRIINSMLQAAAGKPVNFKEMAETLRDVIDSNIFVVSRRGKLLGYSINQQIENDRMKKMLEDRQFPEEYTKNLFNVPETSSNLDINSEYTAFPVENRDLFQAGLTTIVPIIGGGERLGTLILSRLQDQFNDDDLILAEYGATVVGMEILREKAEEIEEEARSKAVVQMAISSLSYSELEAIEHIFEELDGNEGLLVASKIADRVGITRSVIVNALRKLESAGVIESRSLGMKGTYIKVLNNKFLIELENLKSH
notes: For crystallization, B. subtilis CodY was overproduced in E. coli with a C-terminal or an N-terminal 6xHis tag; also called purified CodY protein
  binding result: binds
